According to patent publication US20080069777A1:

Columns and labels:
[1] = target: whole LFA-1 in which the α subunit contains an I-domain in the high affinity locked open state, on cells (HA cells) (human) (UniProt P05107); assay: inhibition of ICAM binding to HA cells, Guava analysis; second experiment
[2] = target: human wild-type LFA-1 on cells (human) (UniProt P20701); assay: inhibition of ICAM binding to human PBMCs; average of four experiments
[3] = target: whole LFA-1 in which the α subunit contains an I-domain in the high affinity locked open state, on cells (HA cells) (human) (UniProt P05107); assay: inhibition of ICAM binding to HA cells, Guava analysis; first experiment
[4] = target: whole LFA-1 in which the α subunit contains an I-domain in the high affinity locked open state, on cells (HA cells) (human) (UniProt P05107); assay: inhibition of ICAM binding to HA cells, Guava analysis; fourth experiment
[5] = target: whole LFA-1 in which the α subunit contains an I-domain in the high affinity locked open state, on cells (HA cells) (human) (UniProt P05107); assay: inhibition of ICAM binding to HA cells, Guava analysis; third experiment
[6] = target: whole LFA-1 in which the α subunit contains an I-domain in the low affinity locked closed state, on cells (LA cells) (human) (UniProt P05107); assay: phage ELISA, LA form of LFA-1, with Mg2+
[7] = target: whole LFA-1 in which the α subunit contains an I-domain in the low affinity locked closed state, on cells (LA cells) (human) (UniProt P05107); assay: phage ELISA, LA form of LFA-1, without Mg2+

Chain of human wild-type LFA-1 on cells (human) (P20701 other isoform, or with tags, fused parts or gaps limits assumed, chain 1 of 2): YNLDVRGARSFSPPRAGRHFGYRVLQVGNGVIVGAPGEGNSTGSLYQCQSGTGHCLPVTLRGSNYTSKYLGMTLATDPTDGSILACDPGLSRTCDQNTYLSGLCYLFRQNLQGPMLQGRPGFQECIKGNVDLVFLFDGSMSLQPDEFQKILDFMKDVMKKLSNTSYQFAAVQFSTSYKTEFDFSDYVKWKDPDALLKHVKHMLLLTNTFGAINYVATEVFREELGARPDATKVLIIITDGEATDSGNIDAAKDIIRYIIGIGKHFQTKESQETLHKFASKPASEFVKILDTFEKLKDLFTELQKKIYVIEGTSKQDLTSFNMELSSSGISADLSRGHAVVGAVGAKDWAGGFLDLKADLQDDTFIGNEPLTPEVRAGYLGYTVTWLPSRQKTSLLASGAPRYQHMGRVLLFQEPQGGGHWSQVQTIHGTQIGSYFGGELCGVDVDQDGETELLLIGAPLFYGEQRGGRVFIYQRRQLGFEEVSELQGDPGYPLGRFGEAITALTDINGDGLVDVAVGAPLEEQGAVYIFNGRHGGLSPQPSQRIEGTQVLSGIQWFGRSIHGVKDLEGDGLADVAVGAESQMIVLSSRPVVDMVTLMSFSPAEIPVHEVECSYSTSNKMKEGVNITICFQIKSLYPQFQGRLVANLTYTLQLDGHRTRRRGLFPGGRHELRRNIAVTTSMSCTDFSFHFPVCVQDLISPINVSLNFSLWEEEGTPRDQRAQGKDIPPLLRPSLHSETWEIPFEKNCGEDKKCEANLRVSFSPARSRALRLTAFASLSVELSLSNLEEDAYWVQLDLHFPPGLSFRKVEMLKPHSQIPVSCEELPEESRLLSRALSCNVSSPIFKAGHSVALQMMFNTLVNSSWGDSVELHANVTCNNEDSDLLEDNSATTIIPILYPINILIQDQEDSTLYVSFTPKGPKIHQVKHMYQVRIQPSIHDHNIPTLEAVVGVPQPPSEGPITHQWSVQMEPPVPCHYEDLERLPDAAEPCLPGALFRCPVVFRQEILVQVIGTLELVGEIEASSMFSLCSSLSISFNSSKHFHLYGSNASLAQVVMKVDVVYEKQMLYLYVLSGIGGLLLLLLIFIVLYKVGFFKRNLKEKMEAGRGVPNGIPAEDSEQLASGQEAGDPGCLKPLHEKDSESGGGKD
Chain of human wild-type LFA-1 on cells (human) (chain, as listed by the source limits assumed, chain 2 of 2): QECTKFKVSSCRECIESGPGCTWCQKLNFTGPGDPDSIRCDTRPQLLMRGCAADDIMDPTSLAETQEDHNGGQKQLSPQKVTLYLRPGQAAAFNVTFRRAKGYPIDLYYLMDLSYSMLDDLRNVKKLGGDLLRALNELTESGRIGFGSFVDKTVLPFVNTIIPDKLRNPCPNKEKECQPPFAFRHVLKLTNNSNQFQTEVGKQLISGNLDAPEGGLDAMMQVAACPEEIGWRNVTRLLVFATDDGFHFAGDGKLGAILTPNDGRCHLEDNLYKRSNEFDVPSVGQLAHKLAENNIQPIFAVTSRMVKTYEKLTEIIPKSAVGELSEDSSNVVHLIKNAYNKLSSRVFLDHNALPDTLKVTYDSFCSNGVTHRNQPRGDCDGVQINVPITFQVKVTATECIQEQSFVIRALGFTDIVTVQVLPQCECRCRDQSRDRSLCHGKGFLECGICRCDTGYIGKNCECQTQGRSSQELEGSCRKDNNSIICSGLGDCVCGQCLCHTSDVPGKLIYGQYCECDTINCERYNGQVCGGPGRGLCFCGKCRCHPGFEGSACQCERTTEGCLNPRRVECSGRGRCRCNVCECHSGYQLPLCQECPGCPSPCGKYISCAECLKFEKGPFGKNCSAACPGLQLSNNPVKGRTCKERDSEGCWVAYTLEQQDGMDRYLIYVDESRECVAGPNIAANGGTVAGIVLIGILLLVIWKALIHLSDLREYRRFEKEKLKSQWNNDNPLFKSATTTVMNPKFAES

Question: How did the IC50 [1] turn out when MHM24 IgG (antibody) was run?
Answer: 1.8 nM

Question: What about the IC50 [2] of the same substance?
Answer: 0.33 nM

Question: And the IC50 [3]?
Answer: 0.24 nM

Question: What about the IC50 [4] of the same substance?
Answer: 2.4 nM

Question: What about the IC50 [5] of the same substance?
Answer: 0.59 nM

Question: With “Control #2 (another protein that binds to a different target)” as the substance, how does the ELISA signal (arbitrary units) [6] read?
Answer: 0.14

Question: And the ELISA signal (arbitrary units) [7]?
Answer: 0.07

Question: Which results are given for “Control #1 (a phage that binds to a different target)”?
Answer: ELISA signal (arbitrary units) [6]: 0.13; ELISA signal (arbitrary units) [7]: 0.07
